Measured values reported in patent publication US20140087995A1 (published 2014).
Each block holds one binder with its values, some of them ahead of it. Numbered stars: 1 amine (or outer) side, 2 acyl side, 3 side chain; on linkers, the order of the positions; unused ones are H or OH. Bridge positions count the residues as written; N and C are the ends. Side chains are listed from the residue outwards. Ends that are not written are not given here. * marks the point of attachment. C20 diacid = O=C(O)CCCCCCCCCCCCCCCCCCC(=O)*; γGlu = O=C(O)[C@H](CCC(=O)[*:2])N[*:1]; AEEA = NCCOCCOCC(=O)O

How the values were obtained:
rat calcitonin receptor [1] = biological target: T1, rat calcitonin receptor (rat, UniProt P32214 25-516); experiment: IC50 on rat calcitonin receptor divided by IC50 on rat amylin receptor (SPA competition)
T1 construct: whole, on cells; membranes of transiently transfected BHK tk'ts 13 cells (Assay VIII); also called rCTR; rat calcitonin (a) receptor
T1 sequence (looked up): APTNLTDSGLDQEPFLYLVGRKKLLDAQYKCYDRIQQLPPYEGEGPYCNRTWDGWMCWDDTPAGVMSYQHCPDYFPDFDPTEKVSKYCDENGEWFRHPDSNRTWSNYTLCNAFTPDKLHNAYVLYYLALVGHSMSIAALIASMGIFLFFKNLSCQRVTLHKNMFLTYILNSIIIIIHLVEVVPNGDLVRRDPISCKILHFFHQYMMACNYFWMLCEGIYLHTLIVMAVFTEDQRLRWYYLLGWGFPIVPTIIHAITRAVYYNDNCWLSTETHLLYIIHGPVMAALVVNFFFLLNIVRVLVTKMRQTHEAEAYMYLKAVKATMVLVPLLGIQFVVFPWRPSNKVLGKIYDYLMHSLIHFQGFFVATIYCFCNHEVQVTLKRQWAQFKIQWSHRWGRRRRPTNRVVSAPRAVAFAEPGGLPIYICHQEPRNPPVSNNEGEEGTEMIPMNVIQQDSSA

[2] = biological target: T2, human calcitonin receptor (human, UniProt P30988 25-474); experiment: IC50 on human calcitonin receptor divided by IC50 on human amylin receptor (SPA competition)
T2 construct: whole, on cells; membranes of stably transfected BHK cells (Assay VII); also called hCTR; hCT
T2 sequence (looked up): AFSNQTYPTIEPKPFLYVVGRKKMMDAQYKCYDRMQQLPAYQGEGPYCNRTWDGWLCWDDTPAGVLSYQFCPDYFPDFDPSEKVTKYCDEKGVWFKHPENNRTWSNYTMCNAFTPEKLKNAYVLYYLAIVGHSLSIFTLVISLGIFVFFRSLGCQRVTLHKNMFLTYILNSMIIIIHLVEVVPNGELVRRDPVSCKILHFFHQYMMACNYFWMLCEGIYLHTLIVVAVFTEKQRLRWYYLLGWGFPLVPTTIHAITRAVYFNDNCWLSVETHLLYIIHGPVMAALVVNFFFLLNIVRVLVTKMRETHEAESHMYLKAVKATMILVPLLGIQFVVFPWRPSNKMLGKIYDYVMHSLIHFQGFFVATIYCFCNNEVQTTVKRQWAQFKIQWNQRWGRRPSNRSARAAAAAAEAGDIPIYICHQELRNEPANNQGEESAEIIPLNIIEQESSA
In short: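 Competition binding by SPA uses membrane preparations (35 ng/μL final) in pH 7.4 Hepes buffer with 1 mM CaCl2 and 5 mM MgCl₂. Incubation lasts 120 min at 25° C, and IC₅₀ comes from one-site fitting.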

rat calcitonin receptor [3] = biological target: T1, rat calcitonin receptor; experiment: SPA competition with 125I-calcitonin, membranes of BHK cells with rat calcitonin receptor (Assay VIII)
[4] = biological target: T3, rat amylin receptor (rat calcitonin receptor + rat RAMP 3) (rat, UniProt P32214 25-516; Q9JJ73 23-147); experiment: SPA competition with 125I-rat amylin, membranes of BHK cells with rat calcitonin receptor + rat RAMP3 (Assay VI)
T3 construct: whole, on cells; membranes of transiently transfected BHK tk'ts 13 cells (Assay VI); also called rAmylin-R; rat amylin 3(a) receptor
T3 sequence (looked up) 1: T1 sequence (looked up)
T3 sequence (looked up) 2: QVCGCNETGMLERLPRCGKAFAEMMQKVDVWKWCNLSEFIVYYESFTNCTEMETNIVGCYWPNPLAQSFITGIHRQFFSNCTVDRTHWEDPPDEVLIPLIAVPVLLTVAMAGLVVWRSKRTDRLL

rat calcitonin receptor [5] = biological target: T4, rat calcitonin receptor (rat, UniProt P32214 25-516); experiment: SPA competition vs 125I-calcitonin, membranes with rat CTR (Assay VIII)
T4 construct: whole, on cells; Cell membranes of transiently transfected BHK tk'ts 13 cells (Assay VIII); also called rCTR; rCT
T4 sequence (looked up): T1 sequence (looked up)

[6] = biological target: T5, rat amylin receptor (rat calcitonin receptor + rat RAMP 3) (rat, UniProt P32214 25-516; Q9JJ73 23-147); experiment: SPA competition vs 125I-rat amylin, membranes with rat CTR + rat RAMP3 (Assay VI)
T5 construct: whole, on cells; Cell membranes of transiently transfected BHK tk'ts 13 cells (Assay VI); also called rAmylin-R; rat amylin 3(a) receptor
T5 sequence (looked up) 1: T1 sequence (looked up)
T5 sequence (looked up) 2: T3 sequence (looked up) 2

B2: N^ε1-[2-[2-[2-[[(4S)-4-carboxy-4-(19-carboxynonadecanoylamino)butanoyl]amino]ethoxy]ethoxy]acetyl]-[Arg17,Pro21,Pro27,Arg35]-h-amylin (peptide)
peptide: K([AEEA-γGlu-C20 diacid])CNTATCATQRLANFLRHSSPNFGAIPSSTNVGSRTY-NH2
modifications: disulfide 2-7; N-terminus assumed
SMILES: CC[C@H](C)[C@H](NC(=O)[C@H](C)NC(=O)CNC(=O)[C@H](Cc1ccccc1)NC(=O)[C@H](CC(N)=O)NC(=O)[C@@H]1CCCN1C(=O)[C@H](CO)NC(=O)[C@H](CO)NC(=O)[C@H](Cc1c[nH]cn1)NC(=O)[C@H](CCCNC(=N)N)NC(=O)[C@H](CC(C)C)NC(=O)[C@H](Cc1ccccc1)NC(=O)[C@H](CC(N)=O)NC(=O)[C@H](C)NC(=O)[C@H](CC(C)C)NC(=O)[C@H](CCCNC(=N)N)NC(=O)[C@H](CCC(N)=O)NC(=O)[C@@H](NC(=O)[C@H](C)NC(=O)[C@@H]1CSSC[C@H](NC(=O)[C@@H](N)CCCCNC(=O)COCCOCCNC(=O)CC[C@H](NC(=O)CCCCCCCCCCCCCCCCCCC(=O)O)C(=O)O)C(=O)N[C@@H](CC(N)=O)C(=O)N[C@@H]([C@@H](C)O)C(=O)N[C@@H](C)C(=O)N[C@@H]([C@@H](C)O)C(=O)N1)[C@@H](C)O)C(=O)N1CCC[C@H]1C(=O)N[C@@H](CO)C(=O)N[C@@H](CO)C(=O)N[C@H](C(=O)N[C@@H](CC(N)=O)C(=O)N[C@H](C(=O)NCC(=O)N[C@@H](CO)C(=O)N[C@@H](CCCNC(=N)N)C(=O)N[C@H](C(=O)N[C@@H](Cc1ccc(O)cc1)C(N)=O)[C@@H](C)O)C(C)C)[C@@H](C)O
notes: Acylated analogue of human amylin; also called compound 38
IC50 (rat calcitonin receptor [5]): 38 nM
IC50 [6]: 0.383 nM

B3: N^ε1-[2-[2-[2-[[(4S)-4-carboxy-4-(19-carboxynonadecanoylamino)butanoyl]amino]ethoxy]ethoxy]acetyl]-[Arg17,Pro21,Pro27]-h-amylin (peptide)
peptide: K([AEEA-γGlu-C20 diacid])CNTATCATQRLANFLRHSSPNFGAIPSSTNVGSNTY-NH2
modifications: disulfide 2-7 (inferred)
notes: analogue of human amylin; also called compound 41
Ratio rCT/rAmylin binding (rat calcitonin receptor [1]): 54
Ratio hCT/hAmylin binding [2]: 49.9
IC50 (rat calcitonin receptor [3]): 74.1 nM
IC50 [4]: 1.37 nM

B4: N^ε1-[(4S)-4-carboxy-4-[[(4S)-4-carboxy-4-(19-carboxynonadecanoylamino)butanoyl]amino]butanoyl]-[Asp14,Arg17,Pro21,Pro26,Asp35]-h-amylin (peptide)
peptide: K([γGlu-γGlu-C20 diacid])CNTATCATQRLADFLRHSSPNFGAPLSSTNVGSDTY-NH2
modifications: disulfide 2-7 (inferred)
notes: analogue of human amylin; also called compound 1
Ratio rCT/rAmylin binding (rat calcitonin receptor [1]): 104
Ratio hCT/hAmylin binding [2]: 27.6
IC50 (rat calcitonin receptor [3]): 135 nM
IC50 [4]: 1.3 nM

B7: N^ε1-[(4S)-4-carboxy-4-[[(4S)-4-carboxy-4-(19-carboxynonadecanoylamino)butanoyl]amino]butanoyl]-[Asp14,Arg17,Pro21,Pro27,Asp35]-h-amylin (peptide)
peptide: K([γGlu-γGlu-C20 diacid])CNTATCATQRLADFLRHSSPNFGAIPSSTNVGSDTY-NH2
modifications: disulfide 2-7 (inferred)
notes: analogue of human amylin; also called compound 2
Ratio rCT/rAmylin binding (rat calcitonin receptor [1]): 366
Ratio hCT/hAmylin binding [2]: 47.5
IC50 (rat calcitonin receptor [3]): 108 nM
IC50 [4]: 0.295 nM

B8: N^α1-[2-[2-[2-[[2-[2-[2-[[(4S)-4-carboxy-4-(19-carboxynonadecanoylamino)butanoyl]amino]ethoxy]ethoxy]acetyl]amino]ethoxy]ethoxy]acetyl]-[Arg17,Pro21,Pro27]-h-am … (peptide)
peptide: KCNTATCATQRLANFLRHSSPNFGAIPSSTNVGSNTY
modifications: C20 diacid-gGlu-2xOEG on the alpha amino group of the N-terminal residue (Lys 1); disulfide bridge between the two Cys residues; C-terminal amide
notes: analogue of human amylin; also called compound 24
Ratio rCT/rAmylin binding (rat calcitonin receptor [1]): 116
Ratio hCT/hAmylin binding [2]: 90
IC50 (rat calcitonin receptor [3]): 350 nM
IC50 [4]: 3.01 nM

B9: N^ε-[(4S)-4-carboxy-4-(19-carboxynonadecanoylamino)butanoyl]Lys[Arg1,Arg17,Pro21,Pro27,His35]-h-amylin (peptide)
peptide: K([γGlu-C20 diacid])RCNTATCATQRLANFLRHSSPNFGAIPSSTNVGSHTY-NH2
modifications: disulfide 3-8 (inferred)
notes: analogue of human amylin extended by Lys at the N-terminus; also called compound 44
Ratio rCT/rAmylin binding (rat calcitonin receptor [1]): 53.3
Ratio hCT/hAmylin binding [2]: 17.7
IC50 (rat calcitonin receptor [3]): 19.6 nM
IC50 [4]: 0.369 nM

B14: N^ε1-[(4S)-4-carboxy-4-(19-carboxynonadecanoylamino)butanoyl]-[Arg17,Pro21,Pro27]-h-amylin (peptide)
peptide: K([γGlu-C20 diacid])CNTATCATQRLANFLRHSSPNFGAIPSSTNVGSNTY-NH2
modifications: disulfide 2-7 (inferred)
notes: analogue of human amylin; also called compound 48
Ratio rCT/rAmylin binding (rat calcitonin receptor [1]): 201
Ratio hCT/hAmylin binding [2]: 69.7
IC50 (rat calcitonin receptor [3]): 112 nM
IC50 [4]: 0.558 nM

More lines, in order of falling IC50 (rat calcitonin receptor [3]), values ahead:

Ratio rCT/rAmylin binding (rat calcitonin receptor [1]): 32.4
Ratio hCT/hAmylin binding [2]: 15.7
IC50 (rat calcitonin receptor [3]): 60.1 nM
IC50 [4]: 1.86 nM
B6: N{Alpha-1}-[(4S)-4-carboxy-4-(19-carboxynonadecanoylamino)butanoyl]-[Glu14,Arg17,Pro21,Pro27,Lys34]-h-amylin (peptide)
peptide: {C20 diacid-γGlu}-KCNTATCATQRLAEFLRHSSPNFGAIPSSTNVGKNTY-NH2
modifications: disulfide 2-7 (inferred)
notes: analogue of human amylin; also called compound 36

Ratio rCT/rAmylin binding (rat calcitonin receptor [1]): 21.7
Ratio hCT/hAmylin binding [2]: 20
IC50 (rat calcitonin receptor [3]): 51.5 nM
IC50 [4]: 2.37 nM
B12: N^α1-[(4S)-4-carboxy-4-(19-carboxynonadecanoylamino)butanoyl]-[Glu14,Arg17,Pro21,Pro25,Pro28,Pro29]-h-amylin (peptide)
peptide: {C20 diacid-γGlu}-KCNTATCATQRLAEFLRHSSPNFGPILPPTNVGSNTY-NH2
modifications: disulfide 2-7 (inferred)
notes: analogue of human amylin; also called compound 6

Ratio rCT/rAmylin binding (rat calcitonin receptor [1]): 142
Ratio hCT/hAmylin binding [2]: 48.9
IC50 (rat calcitonin receptor [3]): 46.8 nM
IC50 [4]: 0.33 nM
B11: N^-1-[(4S)-4-carboxy-4-(19-carboxynonadecanoylamino)butanoyl]-Gly[Arg1,Arg17,Pro21,Pro27]-h-amylin (peptide)
peptide: {C20 diacid-γGlu}-GRCNTATCATQRLANFLRHSSPNFGAIPSSTNVGSNTY-NH2
modifications: disulfide 3-8 (inferred)
notes: analogue of human amylin extended by Gly at the N-terminus; also called compound 46

Ratio rCT/rAmylin binding (rat calcitonin receptor [1]): 67.1
Ratio hCT/hAmylin binding [2]: 26.8
IC50 (rat calcitonin receptor [3]): 41.8 nM
IC50 [4]: 0.623 nM
B1: N^ε-[2-[2-[2-[[(4S)-4-carboxy-4-(19-carboxynonadecanoylamino)butanoyl]amino]ethoxy]ethoxy]acetyl]Lys[Arg1,Arg17,Pro21,Pro27,His35]-h-amylin (peptide)
peptide: K([AEEA-γGlu-C20 diacid])RCNTATCATQRLANFLRHSSPNFGAIPSSTNVGSHTY-NH2
modifications: disulfide 3-8 (inferred)
notes: analogue of human amylin extended by Lys at the N-terminus; also called compound 45

Ratio rCT/rAmylin binding (rat calcitonin receptor [1]): 84.3
Ratio hCT/hAmylin binding [2]: 44.9
IC50 (rat calcitonin receptor [3]): 17.1 nM
IC50 [4]: 0.203 nM
B10: N^-1-[(4S)-4-carboxy-4-(19-carboxynonadecanoylamino)butanoyl]-Gly[Arg1,Arg17,Pro21,Pro27,His35]-h-amylin (peptide)
peptide: {C20 diacid-γGlu}-GRCNTATCATQRLANFLRHSSPNFGAIPSSTNVGSHTY-NH2
modifications: disulfide 3-8 (inferred)
notes: analogue of human amylin extended by Gly at the N-terminus; also called compound 47

Ratio rCT/rAmylin binding (rat calcitonin receptor [1]): 16.7
Ratio hCT/hAmylin binding [2]: 17.3
IC50 (rat calcitonin receptor [3]): 16.7 nM
IC50 [4]: 1 nM
B5: N^ε1-[(4S)-4-carboxy-4-[[(4S)-4-carboxy-4-(19-carboxynonadecanoylamino)butanoyl]amino]butanoyl]-[Asp14,Arg17,Pro22,Pro26,Asp35]-h-amylin (peptide)
peptide: K([γGlu-γGlu-C20 diacid])CNTATCATQRLADFLRHSSNPFGAPLSSTNVGSDTY-NH2
modifications: disulfide 2-7 (inferred)
notes: analogue of human amylin; also called compound 3

Ratio rCT/rAmylin binding (rat calcitonin receptor [1]): 25.4
Ratio hCT/hAmylin binding [2]: 30.7
IC50 (rat calcitonin receptor [3]): 15.3 nM
IC50 [4]: 0.603 nM
B15: N^ε1-19-carboxynonadecanoyl-[Arg17,Pro21,Pro27]-h-amylin (peptide)
peptide: K(C20 diacid)CNTATCATQRLANFLRHSSPNFGAIPSSTNVGSNTY-NH2
modifications: disulfide 2-7 (inferred)
notes: analogue of human amylin; also called compound 42

Ratio rCT/rAmylin binding (rat calcitonin receptor [1]): 69.1
Ratio hCT/hAmylin binding [2]: 34.7
IC50 (rat calcitonin receptor [3]): 7.6 nM
IC50 [4]: 0.11 nM
B13: N^ε1-[2-[2-[2-(19-carboxynonadecanoylamino)ethoxy]ethoxy]acetyl]-[Arg17,Pro21,Pro27]-h-amylin (peptide)
peptide: K([AEEA-C20 diacid])CNTATCATQRLANFLRHSSPNFGAIPSSTNVGSNTY-NH2
modifications: disulfide 2-7 (inferred)
notes: analogue of human amylin; also called compound 43
